Test results reported in article doi:10.1101/2020.05.22.111005 (bioRxiv, 2020).

B1: COV2-2165 (human mAb) (antibody, V domains shown)
VH: EVQLVESGGGLVQPGGSLRLSCAASGLTVRSNYMTWVRQTPGKGLEWVSVIYSGGSTFYADSVKGRFTISRDNSKNTVYLQMNSLRAEDTAVYYCARDLVTYGLDVWGQGTTVTVSS
VL: DIQLTQSPSFLSASVGDRVTITCRASQGISNYLAWYQQKPGTAPNLLIYAASTLQSGVPSRFSGSGSGTEFTLTISSLQPEDFATYYCQLLNSHPLTFGQGTRLEIK
B2: Fab COV2-2165 (Fab, V domains shown)
VH: B1 VH
VL: B1 VL
B3: COV2-2196 (human mAb) (antibody, V domains shown)
VH: QMQLVQSGPEVKKPGTSVKVSCKASGFTFMSSAVQWVRQARGQRLEWIGWIVIGSGNTNYAQKFQERVTITRDMSTSTAYMELSSLRSEDTAVYYCAAPYCSSISCNDGFDIWGQGTMVTVSS
VL: not shown
B4: Fab COV2-2196 (Fab, V domains shown)
VH: B3 VH
VL: not shown

Tests used:
[1] = target: SARS-CoV-2 S receptor-binding domain (SRBD), monomeric, wild type (SARS-CoV-2, Wuhan-Hu-1 reference spike, UniProt P0DTC2); assay: BLI
[2] = target: T1, prefusion-stabilized trimeric SARS-CoV-2 S protein ectodomain (S2Pecto) (SARS-CoV-2, Wuhan-Hu-1 reference spike, UniProt P0DTC2, stabilised); assay: negative-stain electron microscopy
[3] = target: T1, prefusion-stabilized trimeric …; assay: ELISA

Binder | binding result [1] | binding result [2] | binding result [3]
B1 | binds | – | –
B2 | – | binds | –
B3 | binds | – | binds
B4 | – | binds | –
